Results taken from US20210355194A1 (TWIST BIOSCIENCE, published 2021).
Where two headings read alike, the source gives them in different places.

B1: variant 2-5 (antibody, V domains shown)
VH: EVQLLESGGGLVQPGGSLRLSCAASGFTFSDFAMAWVRQAPGKGLEWVSAISGSGDITYYADSVKGRFTISRDNSKNTLYLQMNSLRAEDTAVYYCAREADGLHSPWHFDLWGQGTLVTVSS
VL: DIQMTQSPSSLSASVGDRVTITCRASQSIHTYLNWYQQKPGKAPKLLIYAASALASGVPSRFSGSGSGTDFTLTISSLQPEDFATYYCQQSYSAPPYTFGQGTKVEIK
B2: variant 2-2 (antibody, V domains shown)
VH: EVQLLESGGGLVQPGGSLRLSCAASGFTFSRHAMNWVRQAPGKGLEWVSGISGSGDETYYADSVKGRFTISRDNSKNTLYLQMNSLRAEDTAVYYCARDLPASYYDSSGYYWHNGMDVWGQGTLVTVSS
VL: DIQMTQSPSSLSASVGDRVTITCRASQTINTYLNWYQQKPGKAPKLLIYSASTLQSGVPSRFSGSGSGTDFTLTISSLQPEDFATYYCQQSYSTFTFGQGTKVEIK
B3: SARS-CoV-2 S1 variant 2-5 (antibody, V domains shown)
VH: B1 VH
VL: B1 VL
B4: SARS-CoV-2 S1 variant 2-2 (antibody, V domains shown)
VH: B2 VH
VL: B2 VL

What was measured:
[1] = target: T1, SARS-CoV-2 spike on live SARS-CoV-2 virus (SARS-CoV-2, UniProt P0DTC2 14-1273); experiment: cell-based or functional assay
[2] = target: SARS-CoV-2 spike on VSV-pseudotype SARS-CoV-2 (SARS-CoV-2, UniProt P0DTC2 14-1273); experiment: cell-based or functional assay
[3] = target: T1, SARS-CoV-2 spike on live SARS-CoV-2 …; experiment: cell-based or functional assay; remark: listed apart in the source
[4] = target: T2, Acro COVID S1 (S1N-C82E8) (SARS-CoV-2, UniProt P0DTC2 16-685); experiment: phage ELISA
T2 construct: domain: subunit 1 (S1)

[5] = target: T2, Acro COVID S1 (S1N-C82E8); experiment: phage ELISA; remark: listed apart in the source

Binder	EC50 [1] [µg/mL]	NC50 [2] [µg/mL]	EC80 [3] [µg/mL]	ELISA fold over background [4] [fold]	ELISA fold over background [5] [fold]
B1	18.3	18.3	106	–	–
B2	67.6	67.6	355	–	–
B3	–	–	–	38.3	38.3
B4	–	–	–	39.4	39.4
